Experimental data published in publication PMC7601328.

Target: RNA polymerase holoenzyme (beta, beta', alpha, omega, sigma) (Escherichia coli) (UniProt P0A8V2+P0A8T7+P0A7Z4+P0A800+P00579)
Assay: EMSA
Conditions: 40 mM Hepes-KOH pH 8, 50 mM KCl, 10 mM Mg acetate, 0.5 mM DTT, 0.005% NP40, 50 uM ATP, 30 C; ~0.3 pmol DNA and 7 pmol RNAP in 200 uL; time course, heparin …

GTGCTGCGAAATCATCGGTGTAAATAGGGCTATATGCCGCGTCTTTTCTGGCTAATTTTATGAAAAGATATTTATTGGCGGCACAAAATAAAGAACAATTTTGAATTCCTTACATTCCTGGCTATTGCACAACTGAATTTAAGGCTCTATTATTACCTCAACAAACCACCCCAATATAAGTTTGAGATTACTACAATGAGCGAAGCACTTAAAATTCTGAA (double strand) [hns promoter fragment, 221 bp (-159 to +62)]
binding: binds
